Key:
human OX40 [1] = molecular target: T1, human OX40 (human, UniProt P43489 29-277); assay: cell-based or functional assay
T1 sequence: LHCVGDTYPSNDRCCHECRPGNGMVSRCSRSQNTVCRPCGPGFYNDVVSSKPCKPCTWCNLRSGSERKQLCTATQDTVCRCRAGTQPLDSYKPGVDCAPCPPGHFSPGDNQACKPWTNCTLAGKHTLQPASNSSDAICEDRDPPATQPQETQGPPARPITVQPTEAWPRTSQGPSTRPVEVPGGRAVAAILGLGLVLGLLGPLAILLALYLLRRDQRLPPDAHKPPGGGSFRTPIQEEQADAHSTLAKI

human OX40 [2] = molecular target: T1, human OX40; assay: flow cytometry, binding to activated human T cells
mouse OX40 = molecular target: T2, mouse OX40 (mouse, UniProt P47741 20-272); assay: flow cytometry, binding to activated mouse T cells
T2 construct: whole, on cells; also called murine OX40
T2 sequence (looked up): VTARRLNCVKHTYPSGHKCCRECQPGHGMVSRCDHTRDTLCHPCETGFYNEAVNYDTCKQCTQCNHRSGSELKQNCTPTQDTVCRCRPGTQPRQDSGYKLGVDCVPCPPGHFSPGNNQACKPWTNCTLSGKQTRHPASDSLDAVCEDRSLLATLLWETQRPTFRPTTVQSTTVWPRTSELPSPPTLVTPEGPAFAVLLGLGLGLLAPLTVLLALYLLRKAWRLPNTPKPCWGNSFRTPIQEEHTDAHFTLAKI

cynomolgus OX40 = molecular target: T3, cynomolgus OX40 (cynomolgus, UniProt P43489 29-277 (human entry)); assay: flow cytometry, binding to activated cynomolgus T cells
T3 chain: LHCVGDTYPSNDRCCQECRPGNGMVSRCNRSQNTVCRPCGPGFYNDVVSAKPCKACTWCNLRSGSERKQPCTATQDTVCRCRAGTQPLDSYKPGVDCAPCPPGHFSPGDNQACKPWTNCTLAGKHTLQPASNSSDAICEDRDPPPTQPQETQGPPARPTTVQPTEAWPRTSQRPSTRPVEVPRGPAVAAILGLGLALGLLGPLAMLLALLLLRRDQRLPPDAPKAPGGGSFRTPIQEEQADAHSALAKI

human OX40 [3] = molecular target: T1, human OX40; assay: Flow cytometry receptor occupancy on human CD4+ T cells cultured with CHO-OKT3-CD32A cells
human OX40 [4] = molecular target: T1, human OX40; assay: as above; remark: listed apart in the source
human OX40 [5] = molecular target: T1, human OX40; assay: Flow cytometry on human CD4+ T cells cultured with CHO-OKT3-CD32A cells; bound OX40.21 detected with APC anti-human Fc. Total surface OX40 changes along the same titration
Protocol: Briefly, total T cells were purified from human whole blood using Ficoll gradient centrifugation. CD4+ T cells were isolated from PBMCs using the Miltenyi CD4+ isolation kit. Isolated T cells were cultured in the presence of irradiated CHO-OKT3-CD32A (artificial antigen presenting cells) and in the presence of serial dilutions of OX40.21 or isotype control. Receptor occupancy was determined as the ratio of bound OX40 antibody to total surface OX40 using flow cytometry. Bound antibody was assessed by adding fluorescent conjugated anti-human Fc after washing the T cells. Total OX40 was determined by adding a saturating amount of OX40 antibody to the T cells. Following incubation, cells were washed and stained by adding fluorescent conjugated anti-human FC.

human OX40 [6] = molecular target: T1, human OX40; assay: Emax PK-PD model: trough serum concentration (Cmin1) against blood receptor occupancy on CD4+ T cells at C2D1, 16 cancer patients, flow cytometry; in vivo blood receptor occupancy vs trough serum concentration (Cmin1), Emax PK-PD model; not an in vitro titration
Excerpt: (§1) This Example describes a PK-PD model for predicting receptor occupancy in human patients. The drug concentration-time profile was described by a linear two-compartment PK model using population PK analysis. […] The individual drug exposure (Cmin1: trough concentration after first dose) in the alternative dose schedule was predicted based on the PPK model, which was used in subsequent PK-PD model development.
(§2) wherein drug concentration is Cmin1, the trough concentration after first dose, ROₘₐₓ is the maximum percentage of blood RO and EC₅₀ is the drug concentration corresponding to 50% of ROₘₐₓ. From this analysis, the drug EC₅₀ was estimated to be 0.094 μg/mL (FIG. 8B). The trial […] was conducted to predict blood RO at alternative dosing schedules by using the established PK-PD relationship (Emax model), as well as taking into account inter-subject variability of PK and PD (FIG. 9).

human OX40 [7] = molecular target: T1, human OX40; assay: Emax model (RO = Emax x Cmin1 / (EC50 + Cmin1)) of the trough concentration after the first dose against peripheral blood RO on CD4+ T cells at C2D1 in patients. The text prints the value rounded, 0.094 ug/mL. No Emax value is printed; the median curve runs from about 92 % at 20 mg to about 99 % at 320 mg
Excerpt: as §1, §2

B1: OX40.21 (antibody, human IgG1, kappa, V domains shown)
VH: EVQLVQSGGGLVQPGGSLRLSCAGSGFTFSSYAMYWVRQAPGKGLEWVSAIDTDAGTFYADSVRGRFTISRDNAKNSLYLQMNSLRAEDTAVYFCARLGEGYFFDYWGQGTLVTVSS
VL: EIVLTQSPATLSLSPGERATLSCRASQSVSSYLAWYQQKPGQAPRLLIYDASNRATGIPARFSGSGSGTDFTLTISSLEPEDFAVYYCQQRSNWPPTFGGGTKVEIKR
notes: also called OX40.21 (human)
EC50 of internalization (mean circle spot total intensity) in CD3/CD28-activated Tregs. The table prints no unit; the axis is 'Log nM Ab' (human OX40 [1]): 0.0779 nM | EC50 (human OX40 [2]): 0.072 nM | binding result (mouse OX40): no binding | EC50 (cynomolgus OX40): 0.068 nM | EC50 (read off the curve) (human OX40 [3]): ~0.3 nM | EC50 (read off the curve) (human OX40 [4]): ~0.3 nM | EC50 (read off the curve) (human OX40 [5]): ~0.1 nM | EC50 (human OX40 [6]): 0.094 µg/mL | EC50 (human OX40 [7]): 0.0937 µg/mL
